Legend:
[1] = biological target: S723F-PvCPS-α (prenyltransferase α domain of copalyl diphosphate synthase from Penicillium verruculosum, S723F variant) (Penicillium verruculosum); experiment: crystal structure
[2] = biological target: PvCPS (full-length copalyl diphosphate synthase) (Talaromyces verruculosus, UniProt A0A348FUE1, S723T); details: substrate inhibition constant; 1 mM DMAPP, 1 mM MgCl2, pH 7.5
purified protein = substrate: C=C(C)CCO[P@@](=O)(O)OP(=O)(O)O; experiment: purified protein; details: prenyltransferase activity, 1 mM DMAPP, 1 mM MgCl2, pH 7.5

| stoichiometry N [1] | S723T [2] [µM] | Molecule | Km (purified protein) [µM] | kcat (purified protein) [s⁻¹] | kcat/Km (purified protein) [M⁻¹ s⁻¹] |
| --- | --- | --- | --- | --- | --- |
| 6 |  | S723F-PvCPS-α (prenyltransferase α domain of copalyl diphosphate synthase from Penicillium verruculosum, S723F variant) (domain or fragment) |  |  |  |
|  | 700 ± 100 | C=C(C)CCOP(=O)(O)OP(=O)(O)O [isopentenyl diphosphate] |  |  |  |
|  |  | PvCPS (full-length copalyl diphosphate synthase) (Talaromyces verruculosus; H786A) (protein) MSPMDLQESAAALVRQLGERVEDRRGFGFMSPAIYDTAWVSMISKTIDDQKTWLFAECFQYILSHQLEDGGWAMYASEIDAILNTSASLLSLKRHLSNPYQITSITQEDLSARINRAQNALQKLLNEWNVDSTLHVGFEILVPALLRYLEDEGIAFAFSGRERLLEIEKQKLSKFKAQYLYLPIKVTALHSLEAFIGAIEFDKVSHHKVSGAFMASPSSTAAYMMHATQWDDECEDYLRHVIAHASGKGSGGVPSAFPSTIFESVWPLSTLLKVGYDLNSAPFIEKIRSYLHDAYIAEKGILGFTPFVGADADDTATTILVLNLLNQPVSVDAMLKEFEEEHHFKTYSQERNPSFSANCNVLLALLYSQEPSLYSAQIEKAIRFLYKQFTDSEMDVRDKWNLSPYYSWMLMTQAITRLTTLQKTSKLSTLRDDSISKGLISLLFRIASTVVKDQKPGGSWGTRASKEETAYAVLILTYAFYLDEVTESLRHDIKIAIENGCSFLSERTMQSDSEWLWVEKVTYKSEVLSEAYILAALKRAADLPDENAEAAPVINGISTNGFEHTDRINGKLKVNGTNGTNGSHETNGINGTHEIEQINGVNGTNGHSDVPHDTNGWVEEPTAINETNGHYVNGTNHETPLTNGISNGDSVSVHTDHSDSYYQRSDWTADEEQILLGPFDYLESLPGKNMRSQLIQSFNTWLKVPTESLDVIIKVISMLHTASLLIDDIQDQSILRRGQPVAHSIFGTAQAMNSGNYVYFLALREVQKLQNPKAISIYVDSLIDLARGQGMELFWRDSLMCPTEEQYLDMVANKTGGLFCLAIQLMQAEATIQVDFIPLVRLLGIIFQICDDYLNLKSTAYTDNKGLCEDLTEGKFSFPIIHSIRSNPGNRQLINILKQKPREDDIKRYALSYMESTNSFEYTRGVVRKLKTEAIDTIQGLEKHGLEENIGIRKILARMSLEL | 160 ± 10 | 0.027 | 170 |
|  |  | PvCPS (full-length copalyl diphosphate synthase) (Talaromyces verruculosus; S723T) (protein) MSPMDLQESAAALVRQLGERVEDRRGFGFMSPAIYDTAWVSMISKTIDDQKTWLFAECFQYILSHQLEDGGWAMYASEIDAILNTSASLLSLKRHLSNPYQITSITQEDLSARINRAQNALQKLLNEWNVDSTLHVGFEILVPALLRYLEDEGIAFAFSGRERLLEIEKQKLSKFKAQYLYLPIKVTALHSLEAFIGAIEFDKVSHHKVSGAFMASPSSTAAYMMHATQWDDECEDYLRHVIAHASGKGSGGVPSAFPSTIFESVWPLSTLLKVGYDLNSAPFIEKIRSYLHDAYIAEKGILGFTPFVGADADDTATTILVLNLLNQPVSVDAMLKEFEEEHHFKTYSQERNPSFSANCNVLLALLYSQEPSLYSAQIEKAIRFLYKQFTDSEMDVRDKWNLSPYYSWMLMTQAITRLTTLQKTSKLSTLRDDSISKGLISLLFRIASTVVKDQKPGGSWGTRASKEETAYAVLILTYAFYLDEVTESLRHDIKIAIENGCSFLSERTMQSDSEWLWVEKVTYKSEVLSEAYILAALKRAADLPDENAEAAPVINGISTNGFEHTDRINGKLKVNGTNGTNGSHETNGINGTHEIEQINGVNGTNGHSDVPHDTNGWVEEPTAINETNGHYVNGTNHETPLTNGISNGDSVSVHTDHSDSYYQRSDWTADEEQILLGPFDYLESLPGKNMRSQLIQSFNTWLKVPTESLDVIIKVISMLHTATLLIDDIQDQSILRRGQPVAHSIFGTAQAMNSGNYVYFLALREVQKLQNPKAISIYVDSLIDLHRGQGMELFWRDSLMCPTEEQYLDMVANKTGGLFCLAIQLMQAEATIQVDFIPLVRLLGIIFQICDDYLNLKSTAYTDNKGLCEDLTEGKFSFPIIHSIRSNPGNRQLINILKQKPREDDIKRYALSYMESTNSFEYTRGVVRKLKTEAIDTIQGLEKHGLEENIGIRKILARMSLEL | 36 ± 3 | 0.051 | 1400 |
|  |  | PvCPS (full-length copalyl diphosphate synthase) (Talaromyces verruculosus; F760A) (protein) MSPMDLQESAAALVRQLGERVEDRRGFGFMSPAIYDTAWVSMISKTIDDQKTWLFAECFQYILSHQLEDGGWAMYASEIDAILNTSASLLSLKRHLSNPYQITSITQEDLSARINRAQNALQKLLNEWNVDSTLHVGFEILVPALLRYLEDEGIAFAFSGRERLLEIEKQKLSKFKAQYLYLPIKVTALHSLEAFIGAIEFDKVSHHKVSGAFMASPSSTAAYMMHATQWDDECEDYLRHVIAHASGKGSGGVPSAFPSTIFESVWPLSTLLKVGYDLNSAPFIEKIRSYLHDAYIAEKGILGFTPFVGADADDTATTILVLNLLNQPVSVDAMLKEFEEEHHFKTYSQERNPSFSANCNVLLALLYSQEPSLYSAQIEKAIRFLYKQFTDSEMDVRDKWNLSPYYSWMLMTQAITRLTTLQKTSKLSTLRDDSISKGLISLLFRIASTVVKDQKPGGSWGTRASKEETAYAVLILTYAFYLDEVTESLRHDIKIAIENGCSFLSERTMQSDSEWLWVEKVTYKSEVLSEAYILAALKRAADLPDENAEAAPVINGISTNGFEHTDRINGKLKVNGTNGTNGSHETNGINGTHEIEQINGVNGTNGHSDVPHDTNGWVEEPTAINETNGHYVNGTNHETPLTNGISNGDSVSVHTDHSDSYYQRSDWTADEEQILLGPFDYLESLPGKNMRSQLIQSFNTWLKVPTESLDVIIKVISMLHTASLLIDDIQDQSILRRGQPVAHSIFGTAQAMNSGNYVYALALREVQKLQNPKAISIYVDSLIDLHRGQGMELFWRDSLMCPTEEQYLDMVANKTGGLFCLAIQLMQAEATIQVDFIPLVRLLGIIFQICDDYLNLKSTAYTDNKGLCEDLTEGKFSFPIIHSIRSNPGNRQLINILKQKPREDDIKRYALSYMESTNSFEYTRGVVRKLKTEAIDTIQGLEKHGLEENIGIRKILARMSLEL | 38 ± 1 | 0.0279 | 740 |
|  |  | PvCPS (full-length copalyl diphosphate synthase) (Talaromyces verruculosus; S723F) (protein) MSPMDLQESAAALVRQLGERVEDRRGFGFMSPAIYDTAWVSMISKTIDDQKTWLFAECFQYILSHQLEDGGWAMYASEIDAILNTSASLLSLKRHLSNPYQITSITQEDLSARINRAQNALQKLLNEWNVDSTLHVGFEILVPALLRYLEDEGIAFAFSGRERLLEIEKQKLSKFKAQYLYLPIKVTALHSLEAFIGAIEFDKVSHHKVSGAFMASPSSTAAYMMHATQWDDECEDYLRHVIAHASGKGSGGVPSAFPSTIFESVWPLSTLLKVGYDLNSAPFIEKIRSYLHDAYIAEKGILGFTPFVGADADDTATTILVLNLLNQPVSVDAMLKEFEEEHHFKTYSQERNPSFSANCNVLLALLYSQEPSLYSAQIEKAIRFLYKQFTDSEMDVRDKWNLSPYYSWMLMTQAITRLTTLQKTSKLSTLRDDSISKGLISLLFRIASTVVKDQKPGGSWGTRASKEETAYAVLILTYAFYLDEVTESLRHDIKIAIENGCSFLSERTMQSDSEWLWVEKVTYKSEVLSEAYILAALKRAADLPDENAEAAPVINGISTNGFEHTDRINGKLKVNGTNGTNGSHETNGINGTHEIEQINGVNGTNGHSDVPHDTNGWVEEPTAINETNGHYVNGTNHETPLTNGISNGDSVSVHTDHSDSYYQRSDWTADEEQILLGPFDYLESLPGKNMRSQLIQSFNTWLKVPTESLDVIIKVISMLHTAFLLIDDIQDQSILRRGQPVAHSIFGTAQAMNSGNYVYFLALREVQKLQNPKAISIYVDSLIDLHRGQGMELFWRDSLMCPTEEQYLDMVANKTGGLFCLAIQLMQAEATIQVDFIPLVRLLGIIFQICDDYLNLKSTAYTDNKGLCEDLTEGKFSFPIIHSIRSNPGNRQLINILKQKPREDDIKRYALSYMESTNSFEYTRGVVRKLKTEAIDTIQGLEKHGLEENIGIRKILARMSLEL | 50 ± 10 | 0.11 | 2200 |
